Data taken from US20240043504A1 (published 2024).
Numbering of substitutions follows the chain as printed.

B1: mAb10921 (antibody, V domains shown)
VH: EVQLVESGGGLVQPGGSLRLSCAASGITVSSNYMSWVRQAPGKGLEWVSVIYSGGSTFYADSVKGRFTISRHNSKNTLYLQMNSLRAEDTAVYYCARERNFDAFDIWGQGTMVTVSS
VL: DIQMTQSPSSVSASVGDRVTITCRASQGISSWLAWYQQKPGKAPKLLIYAASSLQSGVPSRFSGSGSGTDFTLTISSLQPEDFATYYCQQANSFPLFTFGPGTKVDIKR
B2: mAb10923 (antibody, V domains shown)
VH: QVQLVQSGAEVKKPGASVKVSCKASGYTFINYYIHWVRQAPGQGLEWMGWINPNSGGTNYAQKFQGRVTMTRDTSISTAYMELSRLRSDDTAVYYCAIITIFGVVTWFDPWGQGTLVTVSS
VL: not shown
B3: mAb10934 (antibody, V domains shown)
VH: not shown
VL: DIQMTQSPSSLSASVGDRVTITCQASQDIWNYINWYQQKPGKAPKLLIYDASNLKTGVPSRFSGSGSGTDFTFTISSLQPEDIATYYCQQHDDLPPTFGQGTKVEIKR
B4: mAb10967 (antibody, V domains shown)
VH: EVQLVESGGGLVQPGGSLRLSCAASGFTVSSNYMSWVRQAPGKGLEWVSVIYPGGSTFYADSVKGRFTISRDNSKNTLYLQMNSLRAEDTAVYYCARDQRDFAWGQGTLVTVSS
VL: B3 VL with W30S, I33L, K55E, S77G, H91Y, D93N, K103R, V104L
B5: mAb10935 (antibody, V domains shown)
VH: EVQLVESGGGLVQPGGSLRLSCAASGFTVSSNYMSWVRQAPGKGLEWVSLIYSGGSTYYADSVKGRFTISRHNSKNTLYLQMNSLRSEDTAVYYCARVPLGDYYYGMDVWGQGTTVTVSS
VL: B3 VL with W30N, N31K, I33L, K55E, H91S, D93N, P96L, Q100G
B6: mAb10938 (antibody, V domains shown)
VH: EVQLVESGGGLVQPGGSLRLSCAVSGFTVSSNYMSWVRQAPGKGLEWVSLIYSGGSTFYADSVKGRFTISRHNSKNTLYLQMNSLRAEDTAVYYCAREGGYSYDYNYWGQGTLVTVSS
VL: B3 VL with W30R, I33L, K55E, S65I, H91Y, D93N, P96I, K103R, V104L
B7: mAb10932 (antibody, V domains shown)
VH: EVQLVESGGGLVQSGGSLRLSCAASGLTVSSNYMSWVRQAPGKGLEWVSVIYSGGSTFYSDSVKGRFTISRHNSKNTLYLQMNSLRAEDTAVYYCARARGDAFDIWGQGTMVTVSS
VL: not shown
B8: mAb11010 (antibody, V domains shown)
VH: QVQLVESGGGVVQPGRSLRLSCAASGFTFSSYGMHWVRQAPGKGLEWVAVISYDGSYKYYADSVKGRFTISRDNSKNTLYLQMNSLRAEDTAVYYCAIDGGTVTTIFDYWGQGTLVTVSS
VL: not shown
B9: mAb10913 (antibody, V domains shown)
VH: EVQLVESGGGLVQPGGSLRLSCAASGFTFRNYEMNWVRQAPGKGLEWVSYITSSGSTMYYADSVKGRFTISRDNAKNSLYLQMNSLRAEDTAVYYCARDGFYYYYAMDVWGQGTTVTVSS
VL: QSVLTQPPSVSAAPGQKVTISCSGSSSNIGNNYVSWYQQLPGTAPKLLIYDNNKRPSGIPDRFSGSKSGTSATLGITGLQTGDEADYYCGTWDSSLSVGRVFGTGTKVTVLG
B10: mAb10964 (antibody, V domains shown)
VH: QVQLQESGPGLVKPSETLSLTCTVSGGSINNYYWIWIRQPPGKGLEWIGYIYHSGSTNYNPSLKSRVTISVDTSKNQFSLKVSSVTAADTAVYYCANMVRGVYEDDYWGQGTLVTVSS
VL: DIQMTQSPSSLSASVGDRVTITCRASQSISNYLNWYQQKPGKAPKLLIFAASSLRSGVPSRFSGSGSGTDFTLTISSLHPEDFATYYCQQNYNTPLTFGPGTKVDIKR
B11: mAb10966 (antibody, V domains shown)
VH: EVQLVESGGGLVQPGGSLRLSCAASGLTVSSNYMSWVRQAPGKGLEWVSVIYSGGSTFYADSVKGRFTISRDNSKNTLYLQMNSLRPEDTAVYYCAREGRIAATGYGMDVWGQGTTVTVSS
VL: not shown
B12: mAb10939 (antibody, V domains shown)
VH: EVQLVESGGGLVQPGGSLRLSCAASGLTVSSNYMNWVRQVPGKGLEWVSVIYSGGSKFYVDSVKGRFTISRHNSKNTLYLQMNSLRPEDTAVYYCTRDAQYYGMDVWGQGTTVTVSS
VL: DIQMTQSPSSLSASVGDRVTITCRASQSISTYLHWYQQKPGEAPKLLIYAASSLQSGVPSRFSGSGSGTDFTLTISSLQPEDFATYYCQQSYSTPPEIFGQGTKLEIKR
B13: mAb10937 (antibody, V domains shown)
VH: QITLKESGPTLVKPTQTLTLTCTFSGFSLSTNVVGVGWIRQPPGKALEWLALIYWNDDKRYSPSLKSRLTITKDTSKNQVVLTMTNMDPVDTATYYCAHGPTGDYFDYWGQGTLVTVSS
VL: not shown
B14: mAb10936 (antibody, V domains shown)
VH: QVQLVESGGGVVQPGRSLRLSCAASGFTFRNYGMHWVRQAPGKGLEWVSVIWYDGSNRYYADSVKGRFTISRDTSKNTLYLQMNSLRAEDTAVYYCARDPPITGTTGGDAFDIWGQGTMVTVSS
VL: not shown
B15: mAb10982 (antibody, V domains shown)
VH: EVQLVESGGGLVQPGGSLRLSCAASGLTVSSNYMSWVRQAPGKGLEWVSVIYSGGTTYYADSVKGRFTISRHNSKNTLSLQMNSLRAEDTAVYYCARGEGANYYGMDVWGQGTTVTVSS
VL: QSVLTQPPSVSGAPGQRVTISCTGSSSNIGTGYDVHWYQQLPGTAPKLLIYGNSNRPSGVPDRFSGSKSGTSASLAITGLQAEDEADYYCQSYDSSLSGYVVFGGGTKLTVLG
B16: mAb10986 (antibody, V domains shown)
VH: EVQLVESGGGLVQPGGSLRLSCAASEFTVSSNYMSWVRQAPGKGLEWVSVIYSGGSTFYADSVKGRFTISRDNSKNTLYLQMNSLRAEDTAVYYCARALPYGDLHFDYWGQGTLVTVSS
VL: B15 VL with S54T, G99D, Y100S, V101Y, G105T, L109V
B17: mAb10985 (antibody, V domains shown)
VH: EVQLVESGGGLVQPGRSLRLSCAASGFTFDDYAMHWVRQAPGKGLEWVSGISWNRGSIGYADSVKGRFTISRDNAKNSLYLQMSSLRAEDTALYYCAKDGERWDSVVVPSARNGMDVWGQGTTVTVSS
VL: B15 VL with T31A, Y100S, V101Y, G105T, L109V
B18: mAb10984 (antibody, V domains shown)
VH: EVQLVESGGGLVQPGGSLRLSCAASGLTVNRNYMSWVRQAPGKGLEWVSLIYSGGSTYYADSVKGRFTISRDNSKNTLYLQMNSLRLEDTAVYYCARGELGIPYGMDVWGQGTTVTVSS
VL: QSVLTQPPSVSAAPGQKVTISCSGSSSNIGNNYVSWYQQLPGTAPKLLIYDNNKRPSGIPDRFSGSKSGTSATLGITGLQTGDEADYYCGTWDSSLSAGVFGGGTKLTVLG
B19: mAb10920 (antibody, V domains shown)
VH: QVQLVESGGGVVQPGRSLRLSCAASGFTFSYYGMHWVRQAPGKGLEWVAVIWYDGSNKFYADSVKGRFTISRDNSKNTLYLQMNSLRAEDTAVYYCAAARPGYYYGMDVWGQGTTVTVSS
VL: DIQMTQSPSSLSASVGDRVTITCRASQGISNYLAWFQQKPGKAPNSLIYAASSLQRGVPSKFSGSGSGTDFTLTISSLQPEDFATYYCQQYNSYPRTFGQGTKVEIKR
B20: mAb10969 (antibody, V domains shown)
VH: QVQLVESGGGVVQPGRSLRLSCAASGFTFSSYAMHWVRQAPGKGLEWVAVISYDGSNKYYADSVKGRFTISRDNSKNTLYLQMNSLRAEDTAVYYCARDGRTITMVRGVIDDAFDIWGQGTMVTVSS
VL: not shown
B21: mAb10989 (antibody, V domains shown)
VH: QVQLVQSGAEVKKPGASVKVSCKASGYIFTGYYMHWVRQAPGQGLEWMGWINPNSGGANYAQKFQGRVTLTRDTSITTVYMELSRLRFDDTAVYYCARGSRYDWNQNNWFDPWGQGTLVTVSS
VL: QSALTQPASVSGSPGQSITISCTGTSSDVGTYNYVSWYQQHPGKAPKLMIFDVSNRPSGVSDRFSGSKSGNTASLTISGLQAEDEADYYCSSFTTSSTVVFGGGTKLTVLG
B22: mAb10930 (antibody, V domains shown)
VH: EVQLVESGGGLVQPGRSLRLSCAASGFTFDDYAMYWVRQAPGKGLEWVSGISWNSGSIGYADSVKGRFTISRDNAKNSLYLQMNSLRAADTALYYCAKDKDWNSRGYYYYGMDVWGQGTTVTVSS
VL: not shown
B23: mAb10971 (antibody, V domains shown)
VH: EVQLVESGGGLIQPGGSLRLSCAASGVTVSSNYMSWVRQAPGKGLEWVSVIYSGGSTFYSDSVKGRFSISRDNSKNTLYLQMNSLRAEDTAVYYCARDLYYYGMDVWGQGTTVTVSS
VL: DIQLTQSPSFLSASVGDRVTITCRASQGISTYLAWYQQKPGKAPKLLIYAASTLQSGVPSRFSGSGSGTEFTLTISSLQPEDFATYYCQQLDSYPGLTFGGGTKVEIKR

Columns and labels:
[1] = target: SARS-CoV-2 RBD extracellular domain expressed with a C-terminal mouse IgG2a (SARS-COV-2 RBD-mFc) (SARS-CoV-2)
[2] = target: SARS-COV-2 RBD extracellular domain expressed with a C-terminal mouse IgG2a (SARS-COV-2 RBD-mFc) (SARS-CoV-2); experiment: SPR, captured mAb, RBD-mFc in solution, 37 C

Row | Binder | Kd [1] [nM] | koff [1] [s⁻¹] | kon [1] [M⁻¹ s⁻¹] | t1/2 [1] [h] | Kd [2] [nM] | t½ [2] [h]
1 | B1 | ≤ 0.0375 | ≤ 1e-05 | 266000 | ≥ 19.2 |  | 
2 | B2 | 0.0435 | 2.83e-05 | 651000 | 6.79 |  | 
3 | B3 | 0.0832 |  |  | 1.64 |  | 
4 | B4 | ≤ 0.0251 |  |  | ≥ 19.2 |  | 
5 | B5 | ≤ 0.0261 | ≤ 1e-05 | 383000 | ≥ 19.2 |  | 
6 | B6 | ≤ 0.0322 |  |  | ≥ 19.2 |  | 
7 | B7 | ≤ 0.0413 | ≤ 1e-05 | 242000 | ≥ 19.2 |  | 
8 | B8 |  |  |  |  | 0.0505 | 2.4
9 | B9 | 0.244 | 0.000152 | 623000 | 1.27 |  | 
10 | B10 | ≤ 0.007 |  |  | ≥ 19.2 |  | 
11 | B11 | ≤ 0.0249 |  |  | ≥ 19.2 |  | 
12 | B12 | 0.0387 | 1.15e-05 | 299000 | 16.7 |  | 
13 | B13 | 0.114 | 7.28e-05 | 639000 | 2.64 |  | 
14 | B14 | ≤ 0.0153 | ≤ 1e-05 | 652000 | ≥ 19.2 |  | 
15 | B15 | 0.0544 | 1.69e-05 | 310000 | 11.4 |  | 
16 | B16 | ≤ 0.0158 |  |  | ≥ 19.2 |  | 
17 | B17 | 0.0117 |  |  | 15.2 |  | 
18 | B18 | ≤ 0.0249 |  |  | ≥ 19.2 |  | 
19 | B19 | 0.416 |  |  | 0.658 |  | 
20 | B20 | 0.0496 |  |  | 12.7 |  | 
21 | B21 |  |  |  | 2.07 |  | 
22 | B22 | ≤ 0.0431 | ≤ 1e-05 | 232000 | ≥ 19.2 |  | 
23 | B23 | ≤ 0.0253 | ≤ 1e-05 | 395000 | ≥ 19.2 |  | 
